The substances below were run against HLA-A*02:01 (Homo sapiens, UniProt P04439, D140Y/D185E/D98H/E176V/E277Q/G131W/G231S/I119V/I121R/I166T/I218V/L300P/L318F/N151K/N90K/P208A/P217A/Q86G/Q94H/R138H/R169H/T345S) (assay: MHC binding assay (UV-ligand exchange, β2m ELISA, peptide exchange yield)). Conditions: binding of HLA-class I restricted peptides to HLA-A*02:01, UV-ligand exchange.
Outline: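 Peptide-MHC complexes formed by UV-ligand exchange, cleaving a UV-sensitive placeholder peptide in favour of the test peptide. Exchange yield measured by ELISA: monomers diluted 100-fold onto streptavidin-coated plates, 1 h 37 °C, detected with 2 ug/ml HRP anti-β2m and TMB, absorbance at 450 nm.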

Substance	Peptide exchange (MHC class I binding score, peptide exchange yield)
330 (QLALKVEGV; listed as Homo sapiens) [compound 330]	“+++” (≥50 = +++)
238 (YLISFQTHI; listed as Homo sapiens) [compound 238]	“+++” (≥50 = +++)
188 (GLFPVTPEAV; listed as Homo sapiens) [compound 188]	“+++” (≥50 = +++)
350 (ALLDVTHSELTV; listed as Homo sapiens) [compound 350]	“+++” (≥50 = +++)
257 (SIFSAFLSV; listed as Homo sapiens) [compound 257]	“+++” (≥50 = +++)
74 (ALLDPEVLSIFV; listed as Homo sapiens) [compound 74]	“+++” (≥50 = +++)
196 (YLYSVEIKL; listed as Homo sapiens) [compound 196]	“++++” (≥75% = ++++)
126 (VLAYFLPEA; listed as Homo sapiens) [compound 126]	“++++” (≥75% = ++++)
243 (LLLNELPSV; listed as Homo sapiens) [compound 243]	“+++” (≥50 = +++)
235 (YLNDLHEVLL; listed as Homo sapiens) [compound 235]	“++++” (≥75% = ++++)
165 (SLLDEIRAV; listed as Homo sapiens) [compound 165]	“+++” (≥50 = +++)
153 (FLIANVLYL; listed as Homo sapiens) [compound 153]	“+” (≥10% = +)
163 (ALDEMGDLLQL; listed as Homo sapiens) [compound 163]	“+++” (≥50 = +++)
7 (SLVGLLLYL; listed as Homo sapiens) [compound 7]	“++++” (≥75% = ++++)
21 (VLDELDMEL; listed as Homo sapiens) [compound 21]	“++” (≥20% = ++)
210 (LLLNAVLTV; listed as Homo sapiens) [compound 210]	“++” (≥20% = ++)
31 (YLAPELFVNV; listed as Homo sapiens) [compound 31]	“++” (≥20% = ++)
249 (LLDGFLVNV; listed as Homo sapiens) [compound 249]	“+++” (≥50 = +++)
117 (ILPDGEDFLAV; listed as Homo sapiens) [compound 117]	“+++” (≥50 = +++)
353 (YLFEMDSSL; listed as Homo sapiens) [compound 353]	“++” (≥20% = ++)
78 (SLFSSLEPQIQPV; listed as Homo sapiens) [compound 78]	“+++” (≥50 = +++)
157 (SLNDEVPEV; listed as Homo sapiens) [compound 157]	“++” (≥20% = ++)

The remaining lines, values ahead:

Peptide exchange (MHC class I binding score, peptide exchange yield)	Substance
“++” (≥20% = ++)	398 (KLLEEDGTIITL; listed as Homo sapiens) [compound 398]
“+++” (≥50 = +++)	594 (IMLKGDNITL; listed as Homo sapiens) [compound 594]
“+++” (≥50 = +++)	531 (YTLPIASSIRL; listed as Homo sapiens) [compound 531]
“+++” (≥50 = +++)	362 (TLYGLSVLL; listed as Homo sapiens) [compound 362]
“++++” (≥75% = ++++)	576 (ILLNNSGQIKL; listed as Homo sapiens) [compound 576]
“++” (≥20% = ++)	453 (KLLEATSAV; listed as Homo sapiens) [compound 453]
“+++” (≥50 = +++)	543 (GLLPTPITQQASL; listed as Homo sapiens) [compound 543]
“+++” (≥50 = +++)	471 (YLYNNMIAKI; listed as Homo sapiens) [compound 471]
“+++” (≥50 = +++)	433 (AMLNEPWAV; listed as Homo sapiens) [compound 433]
“+++” (≥50 = +++)	448 (NLLETKLQL; listed as Homo sapiens) [compound 448]
“+++” (≥50 = +++)	586 (KLKPGDLVGV; listed as Homo sapiens) [compound 586]
“++” (≥20% = ++)	516 (AVGPASILKEV; listed as Homo sapiens) [compound 516]
“+++” (≥50 = +++)	503 (SLNHFTHSV; listed as Homo sapiens) [compound 503]
“+++” (≥50 = +++)	474 (YLDPALELGPRNV; listed as Homo sapiens) [compound 474]
“+++” (≥50 = +++)	584 (ALAEVAAMENV; listed as Homo sapiens) [compound 584]
“+++” (≥50 = +++)	608 (SLLSVSHAL; listed as Homo sapiens) [compound 608]
“+++” (≥50 = +++)	449 (KLAEGLDIQL; listed as Homo sapiens) [compound 449]

Source: patent US11230581B2, “Peptides and combination of peptides for use in immunotherapy against ovarian cancer and other cancers” (Immatics Biotechnologies GmbH, priority 2015, dated 2022)
